Columns and labels:
[1] = biological target: outer surface protein E (OspE) from B. burgdorferi sensu stricto strain N40 (B. burgdorferi sensu stricto strain N40); assay: radioligand binding; OspE, FhbA or Tuf coated on microtitre plates (5–25 µg/ml in PBS, 4°C, 12 h), blocked with 0.5% BSA/PBS; ^125I-FH19-20 (50,000 cpm/well) mixed with serial dilutions of FH19-20 mutants; 37°C, 60 min; IC50 from fitted inhibition curves, three experiments in triplicate
[2] = biological target: FhbA from B. hermsii strain MAN (B. hermsii strain MAN); assay: as above

Substance	IC50mut/IC50wt [1]	IC50mut/IC50wt [2]
FH19-20 D1119G (from UniProt P08603 1107-1231) (domain or fragment)	0.6	0.9
FH19-20 E1198A (from UniProt P08603 1107-1231) (domain or fragment)	24.7	25.1
FH19-20 K1186A (from UniProt P08603 1107-1231) (domain or fragment)	0.2	0.5
FH19-20 K1188A (from UniProt P08603 1107-1231) (domain or fragment)	0.8	1.6
FH19-20 L1189R (from UniProt P08603 1107-1231) (domain or fragment)	2.9	4.9
FH19-20 Q1139A (from UniProt P08603 1107-1231) (domain or fragment)	1.2	1.1
FH19-20 R1182A (from UniProt P08603 1107-1231) (domain or fragment)	3	18
FH19-20 R1203A (from UniProt P08603 1107-1231) (domain or fragment)	4.7	41.9
FH19-20 R1206A (from UniProt P08603 1107-1231) (domain or fragment)	3.4	3.1
FH19-20 R1210A (from UniProt P08603 1107-1231) (domain or fragment)	1.3	1.8
FH19-20 R1215Q (from UniProt P08603 1107-1231) (domain or fragment)	33.8	2
FH19-20 T1184R (from UniProt P08603 1107-1231) (domain or fragment)	1.2	1.7
FH19-20 W1157L (from UniProt P08603 1107-1231) (domain or fragment)	1.4	1.4
FH19-20 W1183L (from UniProt P08603 1107-1231) (domain or fragment)	97.1	66.4

— publication PMC3630169
